Measured values as given in patent US20250206841A1 (ADEPT THERAPEUTICS, published 2025).
Changes are numbered by the printed parent chain.

T1: human Trop-2 expressed on cell surface (human, UniProt P09758 27-323)
T1 sequence (looked up): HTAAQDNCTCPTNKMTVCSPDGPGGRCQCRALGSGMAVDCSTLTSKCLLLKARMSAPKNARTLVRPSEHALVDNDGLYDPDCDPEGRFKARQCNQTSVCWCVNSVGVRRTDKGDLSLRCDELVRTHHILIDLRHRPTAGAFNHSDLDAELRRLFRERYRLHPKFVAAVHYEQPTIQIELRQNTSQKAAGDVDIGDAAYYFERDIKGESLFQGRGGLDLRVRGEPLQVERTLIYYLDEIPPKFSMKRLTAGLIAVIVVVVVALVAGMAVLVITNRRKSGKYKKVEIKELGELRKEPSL

T2: human Trop-2-His protein (human, UniProt P09758 27-274)
T2 construct: extracellular domain; Assay paragraphs say only 'Trop-2-His'; also called hTrop-2; Kactus Cat #TRP-HM121; not shown: His tag
T2 sequence (looked up): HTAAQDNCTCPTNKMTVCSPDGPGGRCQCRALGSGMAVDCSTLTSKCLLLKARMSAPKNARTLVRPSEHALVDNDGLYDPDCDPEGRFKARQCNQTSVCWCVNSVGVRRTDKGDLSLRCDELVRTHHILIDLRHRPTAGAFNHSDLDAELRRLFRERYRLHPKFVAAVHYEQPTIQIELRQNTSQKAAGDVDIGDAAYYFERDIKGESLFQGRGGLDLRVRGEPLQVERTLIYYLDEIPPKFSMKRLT

T3: cynomolgus Trop-2-His protein (cynomolgus, UniProt P09758 27-274 (human entry))
T3 construct: also called cynmolgus Trop-His; Kactus Cat #TRP-CM121; not shown: His tag
T3 chain: T2 sequence (looked up) with M36V, S67N, G139S, I204V

B1: 9D7 (antibody, V domains shown)
VH: QSLEESGGDLVQPGASLTLTCKASGFDLNNYSILWVRQAPGKGLEWIGCIYISGGSTYYANWAKGRFAISKTSSTTVTLQMTSLTAADTATYFCARDDGTASYYLNLWGPGTLVTVSS
VL: YDMTQTPASVSEPVGGTVTIKCQASEDIYKLLAWYQQKPGQPPKLLIYAASDLESGVPSRFKGRGSGTDYTLTISDLECADAATYYCQQAYTIGNIDNSFGGGTEVVVK
notes: Rabbit-derived clone; LEM construct: VH + rabbit IgG CH1 + human IgG1 CH2-CH3
B2: 9D7-2 (antibody, V domains shown)
VH: B1 VH with C49S
VL: B1 VL with C79A
B3: 1D10 (antibody, V domains shown)
VH: QEQLKESGGGLVQPGGSLTLSCKASGFDFNYYGVSWVRQAPGKGLEWIGYIYPAYHNTYYATWVNGRFTISSHNAQNTLYLQLNTLTAADTATYFCARDAGSTDYNLNLWGPGTLVTVSS
VL: DVVMTQTPASVEVAVGGTVTIKCQASEDIESYLAWYQQKPGQPPRLLIYEASKLASGVSSRFSGGGYGTDFTLTISGVECADAATYYCHQALTIGNVDNPFGGGGEVVVK
notes: as for B1
B4: 72F12 (antibody, V domains shown)
VH: B3 VH with T19K, Y31N, G49A, Y55F, T85S, T103V, L107F
VL: DVVMTQTPASVEVAVGGTVTIKCQASKNIDSNLAWYQQKPGQPPKQLIYAASTLASGVSSRFSGSGYGAEFTLTISGVECADAATYYCQQALTIGNVDNPFGGGSEVVVK
notes: as for B1
B5: 62E3 (antibody, V domains shown)
VH: B3 VH with T19K, Y31E, G49A, Y55F, S102T, L107F
VL: B3 VL with P8A, A9S, S10P, E12S, V13A, R45K, G65S, D70E, H89Q, G105S
notes: as for B1
B6: 9F7 (antibody, V domains shown)
VH: B3 VH with Y31N, A100T, L107F
VL: B3 VL with R45K, D70E, H89Q, I94V, G105S
notes: as for B1

target: T1, human Trop-2 expressed on cell surface; assay: cell-based or functional assay

Row | Binder | EC50 of ADCC (NFAT-CD16 reporter), MCF-7 [pM] | EC50 of ADCC (NFAT-CD16 reporter), MDA-MB-231 [pM]
1 | B1 | 280 | 90
2 | B2 | 230 | 110
3 | B3 | 280 | 40
4 | B4 | 160 | 70
5 | B5 | 400 | 40
6 | B6 | 180 | 30

target: T1, human Trop-2 expressed on cell surface; assay: cell-based or functional assay; remark: another data set of the same source

Row | Binder | Internalization %, MDA-MB-231, 0.25 µg/ml, 2 h [%] | Internalization %, MDA-MB-231, 0.25 µg/ml, 4 h [%] | Internalization %, MDA-MB-231, 0.5 µg/ml, 2 h [%] | Internalization %, MDA-MB-231, 0.5 µg/ml, 4 h [%] | Internalization %, MDA-MB-231, 1 µg/ml, 2 h [%] | Internalization %, MDA-MB-231, 1 µg/ml, 4 h [%] | Internalization %, MDA-MB-231, 2 µg/ml, 2 h [%] | Internalization %, MDA-MB-231, 2 µg/ml, 4 h [%]
7 | B1 | 42 | 52 | 47 | 55 | 43 | 54 | 42 | 49
8 | B2 | 52 | 63 | 49 | 58 | 51 | 62 | 48 | 59
9 | B3 | 46 | 53 | 48 | 52 | 41 | 51 | 39 | 44
10 | B4 | 38 | 48 | 42 | 48 | 35 | 45 | 37 | 45
11 | B5 | 41 | 46 | 42 | 45 | 43 | 49 | 43 | 48
12 | B6 | 34 | 38 | 34 | 46 | 33 | 41 | 28 | 31

target: T1, human Trop-2 expressed on cell surface; assay: cell-based or functional assay; remark: another data set of the same source

Row | Binder | Internalization %, MCF-7, 0.25 µg/ml, 1 h [%] | Internalization %, MCF-7, 0.25 µg/ml, 2 h [%] | Internalization %, MCF-7, 0.25 µg/ml, 4 h [%] | Internalization %, MCF-7, 0.5 µg/ml, 1 h [%] | Internalization %, MCF-7, 0.5 µg/ml, 2 h [%] | Internalization %, MCF-7, 0.5 µg/ml, 4 h [%]
13 | B1 | 42 | 75 | 69 | 46 | 60 | 65
14 | B2 | 29 | 42 | 57 | 28 | 42 | 52
15 | B3 | 30 | 56 | 49 | 44 | 54 | 65
16 | B4 | 21 | 37 | 47 | 24 | 39 | 48
17 | B5 | 23 | 39 | 45 | 21 | 41 | 40
18 | B6 | 2 | 31 | 36 | 29 | 44 | 49

target: T1, human Trop-2 expressed on cell surface; assay: flow cytometry, MCF-7 cells
Protocol: (§1) Cells were then resuspended in FACS buffer (1×DPBS/1% FBS) at 10⁶/ml concentration. One hundred microliter (100 μl) of cells were aliquoted into a single well in 96 well plates. The antibodies to be tested were serially diluted at 1:3 fold starting at 15 μg/mL and were then added into each well. The antibodies were mixed with cells and the mixtures were incubated on ice for 1 hour. After washing with FACS buffer, one hundred microliter (100 μl) of 1:400 diluted PE-conjugated anti-human Fc secondary antibody (Jackson Immuno Research) was added into each well and incubated for 30 minutes on ice. After washing with FACS buffer, stained cells were resuspended at diluted 7-ADD (Biolegend, used at 1:100 dilution) and analyzed on Guava 11HT or 5HT (Luminex). Data was analyzed using Flowjo software. EC₅₀ values were calculated using GraphPad Prism. Sacitnzurnab govitecan was used as positive control. Anti-HEL.hIgG1 was used as isotype negative control. Similar assay was performed using MCF-7 cells (known to express human Trop-2).

Row | Binder | EC50 [pM]
19 | B1 | 1200
20 | B2 | 1000
21 | B3 | 900
22 | B4 | 700
23 | B5 | 700
24 | B6 | 300

target: T2, human Trop-2-His protein; assay: ELISA, coated Trop-2 protein
Protocol: (§2) Purified antibodies were tested by ELISA to confirm their binding and affinity against human and cynomolgus Trop-2-His protein. Briefly, 96-well Maxisorp plates (Nunc) were coated with 100 μl/well of 0.5 μg/ml human (Kactus Cat #TRP-HM121, or Sino Biological, Cat #10428-HO8H) or cynomolgus Trop-2 protein (Kactus Cat #TRP-CM121, or Sino Biological, Cat #90893-CO8H) diluted in 1×PBS (GIBCO) overnight at 4° C. Plates were washed four times with 300 μl/well washing buffer (1×PBST, diluted from 20×PBST (Thermo Scientific) with distilled water)) and then blocked with 300 μl/well of blocking buffer (1×PBST/3% BSA (BSA, Sigma)) for 2 hours at RT on plate shaker at 100 rpm. Plates were washed and added with 100 μl/well of testing antibodies, which were serial diluted with assay buffer (PBST/1% BSA). The antibodies were incubated at room temperature for 2 hours on plate shaker at 100 rpm. Plates were washed. One hundred microliters (100 μl) of 1:10,000 diluted horseradish peroxidase (HRP) conjugated anti-hIgG antibody (Jackson Immuno Research) was added into each well and incubated at room temperature for 1 hour on plate shaker at 100 rpm. Plates were washed and added with 100 μl/well TMB substrate for color development in dark at room temperature for up to 10 minutes. After addition of 50 μl/well of stop solution (1N H₂SO₄), plates were read at 450 nm on a plate reader (SpectraMax M5). EC₅₀ values were calculated using Graphpad Prism. Sacituzumab govitecan, was used as positive control. Anti-HEL.hIgG1 was used as isotype control.

Row | Binder | EC50 [pM]
25 | B1 | 17
26 | B2 | 20
27 | B3 | 16
28 | B4 | 13
29 | B5 | 18
30 | B6 | 33

Target: T3, cynomolgus Trop-2-His protein
Assay: ELISA, coated Trop-2 protein
Protocol: as §2

Row | Binder | EC50 [pM]
31 | B1 | 16
32 | B2 | 14
33 | B3 | 17
34 | B4 | 13
35 | B5 | 16
36 | B6 | 30

target: T1, human Trop-2 expressed on cell surface; assay: flow cytometry, MDA-MB-231-GFP cells
Protocol: as §1

Row | Binder | EC50 [pM]
37 | B1 | 30
38 | B2 | 100
39 | B3 | 10
40 | B4 | 10
41 | B5 | 10
42 | B6 | 30
